Reference: the supplement of paper PMC5998384

Columns and labels:
HeLa Kyoto [1] = assay: solubility in G1/S (NP-40 vs SDS abundance) (log2 ratio); higher = more soluble; conditions: cell cycle stage: G1/S
HeLa Kyoto [2] = assay: melting temperature (median over replicates), in situ; higher = more thermally stable
HeLa Kyoto [3] = assay: solubility change mitosis vs G1/S (difference of NP-40 vs SDS log2 ratios) (log2 ratio difference); higher = more soluble in mitosis
HeLa Kyoto [4] = assay: thermal stability score vs G1/S (z-score of summed log2 fold changes over temperatures); higher = more thermally stable than in G1/S
[5] = cell cycle stage: early G1 (4.5 h after nocodazole release)
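Throughout, for melting temperature (median over replicates), in situ: HeLa Kyoto cells synchronized by double thymidine or nocodazole block, proteins quantified by TMT10plex mass spectrometry, three independent biological replicates.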
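Throughout, for solubility change mitosis vs G1/S (difference of NP-40 vs SDS log2 ratios): synchronized HeLa Kyoto cells (double thymidine block for G1/S, nocodazole release for mitosis), protein amounts in NP-40 versus SDS lysates quantified by mass spectrometry, three biological replicates.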
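Throughout, for solubility in G1/S (NP-40 vs SDS abundance): HeLa Kyoto cells arrested at G1/S by double thymidine block, proteins quantified by TMT10plex mass spectrometry in mild NP-40 versus SDS extracts, three biological replicates.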
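Throughout, for thermal stability score vs G1/S (z-score of summed log2 fold changes over temperatures): synchronized HeLa Kyoto cells, proteins quantified by TMT10plex mass spectrometry, three biological replicates, mitosis taken 0.5 h after nocodazole release, G1/S directly after double thymidine block.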

Sequence	solubility in G1/S (log2) (HeLa Kyoto [1])	melting temperature (HeLa Kyoto [2]; cell cycle stage: G1/S) [°C]	melting temperature (HeLa Kyoto [2]; cell cycle stage: mitosis) [°C]	solubility change mitosis (log2) (HeLa Kyoto [3])	thermal stability score (HeLa Kyoto [4]; [5])	thermal stability score (HeLa Kyoto [4]; cell cycle stage: mitosis)
MAAAAAAGEARRVLVYGGRGALGSRCVQAFRARNWWVASVDVVENEEASASIIVKMTDSFTEQADQVTAEVGKLLGEEKVDAILCVAGGWAGGNAKSKSLFKNCDLMWKQSIWTSTISSHLATKHLKEGGLLTLAGAKAALDGTPGMIGYGMAKGAVHQLCQSLAGKNSGMPPGAAAIAVLPVTLDTPMNRKSMPEADFSSWTPLEFLVETFHDWITGKNRPSSGSLIQVVTTEGRTELTPAYF [QDPR]	0.236	55.5	55.5	-0.0466	-1.31	-0.994
MAAAAAGTATSQRFFQSFSDALIDEDPQAALEELTKALEQKPDDAQYYCQRAYCHILLGNYCVAVADAKKSLELNPNNSTAMLRKGICEYHEKNYAAALETFTEGQKLDIETGFHRVGQAGLQLLTSSDPPALDSQSAGITGADANFSVWIKRCQEAQNGSESEVWTHQSKIKYDWYQTESQVVITLMIKNVQKNDVNVEFSEKELSALVKLPSGEDYNLKLELLHPIIPEQSTFKVLSTKIEIKLKKPEAVRWEKLEGQGDVPTPKQFVADVKNLYPSSSPYTRNWDKLVGEIKEEEKNEKLEGDAALNRLFQQIYSDGSDEVKRAMNKSFMESGGTVLSTNWSDVGKRKVEINPPDDMEWKKY [SUGT1]	0.138	51.5	52	-0.0323	0.39	-0.171
MAAAAAQGGGGGEPRRTEGVGPGVPGEVEMVKGQPFDVGPRYTQLQYIGEGAYGMVSSAYDHVRKTRVAIKKISPFEHQTYCQRTLREIQILLRFRHENVIGIRDILRASTLEAMRDVYIVQDLMETDLYKLLKSQQLSNDHICYFLYQILRGLKYIHSANVLHRDLKPSNLLINTTCDLKICDFGLARIADPEHDHTGFLTEYVATRWYRAPEIMLNSKGYTKSIDIWSVGCILAEMLSNRPIFPGKHYLDQLNHILGILGSPSQEDLNCIINMKARNYLQSLPSKTKVAWAKLFPKSDSKALDLLDRMLTFNPNKRITVEEALAHPYLEQYYDPTDEPVAEEPFTFAMELDDLPKERLKELIFQETARFQPGVLEAP [MAPK3]	0.391	51.3	50.2	-0.228	-0.246	-0.247
MAAAAGRSLLLLLSSRGGGGGGAGGCGALTAGCFPGLGVSRHRQQQHHRTVHQRIASWQNLGAVYCSTVVPSDDVTVVYQNGLPVISVRLPSRRERCQFTLKPISDSVGVFLRQLQEEDRGIDRVAIYSPDGVRVAASTGIDLLLLDDFKLVINDLTYHVRPPKRDLLSHENAATLNDVKTLVQQLYTTLCIEQHQLNKERELIERLEDLKEQLAPLEKVRIEISRKAEKRTTLVLWGGLAYMATQFGILARLTWWEYSWDIMEPVTYFITYGSAMAMYAYFVMTRQEYVYPEARDRQYLLFFHKGAKKSRFDLEKYNQLKDAIAQAEMDLKRLRDPLQVHLPLRQIGEKD [MCU]	0.00831	53	52.9	-0.0872	0.0563	-1.45
MAAAALRSGWCRCPRRCLGSGIQFLSSHNLPHGSTYQMRRPGGELPLSKSYSSGNRKGFLSGLLDNVKQELAKNKEMKESIKKFRDEARRLEESDVLQEARRKYKTIESETVRTSEVLRKKLGELTGTVKESLHEVSKSDLGRKIKEGVEEAAKTAKQSAESVSKGGEKLGRTAAFRALSQGVESVKKEIDDSVLGQTGPYRRPQRLRKRTEFAGDKFKEEKVFEPNEEALGVVLHKDSKWYQQWKDFKENNVVFNRFFEMKMKYDESDNAFIRASRALTDKVTDLLGGLFSKTEMSEVLTEILRVDPAFDKDRFLKQCENDIIPNVLEAMISGELDILKDWCYEATYSQLAHPIQQAKALGLQFHSRILDIDNVDLAMGKMMEQGPVLIITFQAQLVMVVRNPKGEVVEGDPDKVLRMLYVWALCRDQDELNPYAAWRLLDISASSTEQIL [TIMM44]	0.144	52	51.6	-0.0435	0.205	-0.742
MAAAANSGSSLPLFDCPTWAGKPPPGLHLDVVKGDKLIEKLIIDEKKYYLFGRNPDLCDFTIDHQSCSRVHAALVYHKHLKRVFLIDLNSTHGTFLGHIRLEPHKPQQIPIDSTVSFGASTRAYTLREKPQTLPSAVKGDEKMGGEDDELKGLLGLPEEETELDNLTEFNTAHNKRISTLTIEEGNLDIQRPKRKRKNSRVTFSEDDEIINPEDVDPSVGRFRNMVQTAVVPVKKKRVEGPGSLGLEESGSRRMQNFAFSGGLYGGLPPTHSEAGSQPHGIHGTALIGGLPMPYPNLAPDVDLTPVVPSAVNMNPAPNPAVYNPEAVNEPKKKKYAKEAWPGKKPTPSLLI [PPP1R8]	0.0809	50.4	51.2	-0.0793	0.0118	-0.547
MAAAAPDSRVSEEENLKKTPKKKMKMVTGAVASVLEDEATDTSDSEGSCGSEKDHFYSDDDAIEADSEGDAEPCDKENENDGESSVGTNMGWADAMAKVLNKKTPESKPTILVKNKKLEKEKEKLKQERLEKIKQRDKRLEWEMMCRVKPDVVQDKETERNLQRIATRGVVQLFNAVQKHQKNVDEKVKEAGSSMRKRAKLISTVSKKDFISVLRGMDGSTNETASSRKKPKAKQTEVKSEEGPGWTILRDDFMMGASMKDWDKESDGPDDSRPESASDSDT [RRP15]	-1.21		54.2	0.962	-5.18	-11.7
MAAAAVSGALGRAGWRLLQLRCLPVARCRQALVPRAFHASAVGLRSSDEQKQQPPNSFSQQHSETQGAEKPDPESSHSPPRYTDQGGEEEEDYESEEQLQHRILTAALEFVPAHGWTAEAIAEGAQSLGLSSAAASMFGKDGSELILHFVTQCNTRLTRVLEEEQKLVQLGQAEKRKTDQFLRDAVETRLRMLIPYIEHWPRALSILMLPHNIPSSLSLLTSMVDDMWHYAGDQSTDFNWYTRRAMLAAIYNTTELVMMQDSSPDFEDTWRFLENRVNDAMNMGHTAKQVKSTGEALVQGLMGAAVTLKNLTGLNQRR [COQ9]	0.16	51.5	51.8	0.333	-0.112	0.754
MAAACRSVKGLVAVITGGASGLGLATAERLVGQGASAVLLDLPNSGGEAQAKKLGNNCVFAPADVTSEKDVQTALALAKGKFGRVDVAVNCAGIAVASKTYNLKKGQTHTLEDFQRVLDVNLMGTFNVIRLVAGEMGQNEPDQGGQRGVIINTASVAAFEGQVGQAAYSASKGGIVGMTLPIARDLAPIGIRVMTIAPGLFGTPLLTSLPEKVCNFLASQVPFPSRLGDPAEYAHLVQAIIENPFLNGEVIRLDGAIRMQP [HSD17B10]	0.254	54.5	54.4	-0.041	0.0147	-4.18
MAAAEAGGDDARCVRLSAERAQALLADVDTLLFDCDGVLWRGETAVPGAPEALRALRARGKRLGFITNNSSKTRAAYAEKLRRLGFGGPAGPGASLEVFGTAYCTALYLRQRLAGAPAPKAYVLGSPALAAELEAVGVASVGVGPEPLQGEGPGDWLHAPLEPDVRAVVVGFDPHFSYMKLTKALRYLQQPGCLLVGTNMDNRLPLENGRFIAGTGCLVRAVEMAAQRQADIIGKPSRFIFDCVSQEYGINPERTVMVGDRLDTDILLGATCGLKTILTLTGVSTLGDVKNNQESDCVSKKKMVPDFYVDSIADLLPALQG [PGP]	0.536	56.8	58.2	-0.00434	-0.684	-1.2
MAAAEGPVGDGELWQTWLPNHVVFLRLREGLKNQSPTEAEKPASSSLPSSPPPQLLTRNVVFGLGGELFLWDGEDSSFLVVRLRGPSGGGEEPALSQYQRLLCINPPLFEIYQVLLSPTQHHVALIGIKGLMVLELPKRWGKNSEFEGGKSTVNCSTTPVAERFFTSSTSLTLKHAAWYPSEILDPHVVLLTSDNVIRIYSLREPQTPTNVIILSEAEEESLVLNKGRAYTASLGETAVAFDFGPLAAVPKTLFGQNGKDEVVAYPLYILYENGETFLTYISLLHSPGNIGKLLGPLPMHPAAEDNYGYDACAVLCLPCVPNILVIATESGMLYHCVVLEGEEEDDHTSEKSWDSRIDLIPSLYVFECVELELALKLASGEDDPFDSDFSCPVKLHRDPKCPSRYHCTHEAGVHSVGLTWIHKLHKFLGSDEEDKDSLQELSTEQKCFVEHILCTKPLPCRQPAPIRGFWIVPDILGPTMICITSTYECLIWPLLSTVHPASPPLLCTREDVEVAESPLRVLAETPDSFEKHIRSILQRSVANPAFLKASEKDIAPPPEECLQLLSRATQVFREQYILKQDLAKEEIQRRVKLLCDQKKKQLEDLSYCREERKSLREMAERLADKYEEAKEKQEDIMNRMKKLLHSFHSELPVLSDSERDMKKELQLIPDQLRHLGNAIKQVTMKKDYQQQKMEKVLSLPKPTIILSAYQRKCIQSILKEEGEHIREMVKQINDIRNHVNF [NUP88]	-0.268	50.4	48.8	0.171	-1.46	-0.755
MAAAEPAVLALPNSGAGGAGAPSGTVPVLFCFSVFARPSSVPHGAGYELLIQKFLSLYGDQIDMHRKFVVQLFAEEWGQYVDLPKGFAVSERCKVRLVPLQIQLTTLGNLTPSSTVFFCCDMQERFRPAIKYFGDIISVGQRLLQGARILGIPVIVTEQYPKGLGSTVQEIDLTGVKLVLPKTKFSMVLPEVEAALAEIPGVRSVVLFGVETHVCIQQTALELVGRGVEVHIVADATSSRSMMDRMFALERLARTGIIVTTSEAVLLQLVADKDHPKFKEIQNLIKASAPESGLLSKV [ISOC1]	0.237	55.3	55.4	-0.11	-1.52	-0.91
MAAAGAPDGMEEPGMDTEAETVATEAPARPVNCLEAEAAAGAAAEDSGAARGSLQPAPAQPPGDPAAQASVSNGEDAGGGAGRELVDLKIIWNKTKHDVKFPLDSTGSELKQKIHSITGLPPAMQKVMYKGLVPEDKTLREIKVTSGAKIMVVGSTINDVLAVNTPKDAAQQDAKAEENKKEPLCRQKQHRKVLDKGKPEDVMPSVKGAQERLPTVPLSGMYNKSGGKVRLTFKLEQDQLWIGTKERTEKLPMGSIKNVVSEPIEGHEDYHMMAFQLGPTEASYYWVYWVPTQYVDAIKDTVLGKWQYF [UBFD1]	0.522	51.5	52.1	0.0325	-0.222	-0.699
MAAAGGARLLRAASAVLGGPAGRWLHHAGSRAGSSGLLRNRGPGGSAEASRSLSVSARARSSSEDKITVHFINRDGETLTTKGKVGDSLLDVVVENNLDIDGFGACEGTLACSTCHLIFEDHIYEKLDAITDEENDMLDLAYGLTDRSRLGCQICLTKSMDNMTVRVPETVADARQSIDVGKTS [FDX1]	0.338	53	53.9	-0.0683	-0.691	-1.73
MAAAGGGGGGAAAAGRAYSFKVVLLGEGCVGKTSLVLRYCENKFNDKHITTLQASFLTKKLNIGGKRVNLAIWDTAGQERFHALGPIYYRDSNGAILVYDITDEDSFQKVKNWVKELRKMLGNEICLCIVGNKIDLEKERHVSIQEAESYAESVGAKHYHTSAKQNKGIEELFLDLCKRMIETAQVDERAKGNGSSQPGTARRGVQIIDDEPQAQTSGGGCCSSG [RAB21]	0.158	60.4	60.5	-0.0826	-1.73	-1.92
